Results as given in PMC10864410, “The pathogen-encoded signalling receptor Tir exploits host-like intrinsic disorder for infection” (Communications Biology, 2024).

B4: pC-Tir, C-Tir (residues 388-550 of EPEC O127:H6 Tir) phosphorylated by Fyn at four tyrosines (domain or fragment)
chain: RRNQPAEQTTTTTTHTVVQQQTGGNTPAQGGTDATRAEDASLNRRDSQGSVASTHWSDSSSEVVNPYAEVGGARNSLSAHQPEEHIYDEVAADPGYSVIQNFSGSGPVTGRLIGTPGQGIQSTYALLANSGGLRLGMGGLTSGGESAVSSVNAAPTPGPVRFV
modifications: phosphotyrosine at Y454, Y474, Y483 and Y511

Columns and labels:
[1] = biological target: B4; experiment: NMR; site pY483 (apparent local Kd)
[2] = biological target: B4; experiment: NMR; site pY474 (apparent local Kd)
[3] = biological target: T1, C-Tir, C-terminal cytosolic region of Tir of EPEC O127:H6, residues 388-550, unphosphorylated (Enteropathogenic E. coli (EPEC) O127:H6, UniProt B7UM99 388-550); experiment: NMR titration; unlabelled C-SH2 added to 15N-labelled unphosphorylated C-Tir (2.0 and 8.0 equivalents shown); [15N-1H]-HSQC peak intensities of A512-A515 fitted globally to a 1:1 model; apparent KD; conditions: both partners purified
T1 construct: Translocated intimin receptor Tir, EPEC O127:H6, residues 388-550; Trx-His6 tag cleaved on-column with HRV-3C protease; 15N-labelled for the NMR titration; also called unphosphorylated C-Tir; Tir C-terminus; source: E. coli BL21 Star (DE3) pLysS, lysed by boiling, purified (Strep-Tactin XT, Superdex 200); not shown: Trx, N-terminal, cleaved; His6, N-terminal, cleaved; Strep-tag, C-terminal, kept
T1 sequence: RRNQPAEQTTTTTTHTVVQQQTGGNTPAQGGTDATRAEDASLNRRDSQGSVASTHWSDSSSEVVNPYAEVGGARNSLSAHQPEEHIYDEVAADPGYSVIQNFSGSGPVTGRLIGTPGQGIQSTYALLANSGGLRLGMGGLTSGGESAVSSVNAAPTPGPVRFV

[4] = biological target: T2, pC-Tir, C-Tir (residues 388-550 of EPEC O127:H6 Tir) phosphorylated by Fyn at four tyrosines (Enteropathogenic E. coli (EPEC) O127:H6, UniProt B7UM99 388-550, phosphotyrosine at Y454, Y474, Y483 and Y511); experiment: NMR titration; 15N-labelled pC-Tir (95 uM) titrated with 0.25, 0.5, 0.75, 1, 2, 4 and 6 equivalents of unlabelled C-SH2; [15N-1H]-HSQC peak intensities clustered by phosphorylation site and fitted globally to a 1:1 model; apparent KD for each site; conditions: both partners purified
T2 construct: Translocated intimin receptor Tir, EPEC O127:H6, residues 388-550; Same construct as m4, phosphorylated in vitro; 15N-labelled for the NMR titration; also called 4-fold phosphorylated state; phosphorylated C-Tir; not shown: Trx, N-terminal, cleaved; His6, N-terminal, cleaved; Strep-tag, C-terminal, kept
T2 sequence: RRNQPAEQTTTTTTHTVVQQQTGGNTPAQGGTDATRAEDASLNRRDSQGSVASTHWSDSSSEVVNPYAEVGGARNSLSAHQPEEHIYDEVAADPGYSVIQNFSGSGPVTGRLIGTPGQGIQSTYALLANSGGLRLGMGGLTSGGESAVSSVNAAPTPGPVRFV

[5] = biological target: B4; experiment: NMR; site pY454 (apparent local Kd)
[6] = biological target: B4; experiment: NMR; site pY511 (apparent local Kd)
[7] = biological target: the molecule itself; experiment: SEC-SAXS; synchrotron SEC-SAXS, B21 beamline, Shodex KW403-4F column; 100 mM Tris-HCl pH 8.0, 150 mM NaCl, 2 mM DTT, 1 mM EDTA; 50 uL of 10.0-25.0 mg/mL injected; dimeric single-peak region
[8] = biological target: T3, C-terminal SH2 domain (C-SH2) of human phosphatase SHP-1, residues 101-217 (human, UniProt P29350 101-217); experiment: NMR; site pY483, apparent
T3 chain: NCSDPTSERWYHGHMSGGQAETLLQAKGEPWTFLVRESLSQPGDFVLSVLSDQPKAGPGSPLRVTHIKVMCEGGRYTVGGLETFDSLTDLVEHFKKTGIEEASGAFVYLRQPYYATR

[9] = biological target: T3, C-terminal SH2 domain (C-SH2) of human …; experiment: NMR; site pY511, apparent
[10] = biological target: T3, C-terminal SH2 domain (C-SH2) of human …; experiment: NMR; site pY454, apparent
[11] = biological target: T3, C-terminal SH2 domain (C-SH2) of human …; experiment: NMR; site pY474, apparent

B1: C-terminal SH2 domain (C-SH2) of human phosphatase SHP-1, residues 101-217 (domain or fragment, UniProt P29350 101-217, looked up)
chain: NCSDPTSERWYHGHMSGGQAETLLQAKGEPWTFLVRESLSQPGDFVLSVLSDQPKAGPGSPLRVTHIKVMCEGGRYTVGGLETFDSLTDLVEHFKKTGIEEASGAFVYLRQPYYATR
notes: Tyrosine-protein phosphatase SHP-1, human, C-terminal SH2 domain, residues 101-217; PCR-amplified from the vector pGEX SHP-1(NC)-SH2; Trx-His6 tag cleaved on-column with HRV-3C protease; unlabelled in the NMR titrations; also called SHP-1 C-SH2 domain; source: E. coli BL21 Star (DE3) pLysS, purified (Strep-Tactin XT, Superdex 200); not shown: Trx, N-terminal, cleaved; His6, N-terminal, cleaved
[1]
  Kd: 9.25 µM
[2]
  Kd: 2.66 µM
[3]
  Kd: ~68.5 µM
[4]
  fold enhancement of binding at the Y511 site against unphosphorylated C-Tir: ~10 fold
[5]
  Kd: 86.1 µM
[6]
  Kd: 6.94 µM

B2: NS-Tir, N-terminal structured region of Tir (N-Tir 61-200) of EPEC O127:H6 (domain or fragment)
chain: VDSRDIPGLPTNPSRLAAATSETCLLGGFEVLHDKGPLDILNTQIGPSAFRVEVQADGTHAAIGEKNGLEVSVTLSPQEWSSLQSIDTEGKNRFVFTGGRGGSGHPMVTVASDIAEARTKILAKLDPDNHGGRQPKDVDT
notes: Translocated intimin receptor Tir, EPEC O127:H6, residues 61-200; Trx-His6 tag cleaved in vivo by co-expressed TEV protease; source: E. coli BL21 Star (DE3) pLysS, purified (Strep-Tactin XT, Superdex 200); not shown: Trx, N-terminal, cleaved; His6, N-terminal, cleaved; Strep-tag, C-terminal, kept
[7]
  stoichiometry N: 2

B3: N-Tir, N-terminal cytosolic region of the translocated intimin receptor (Tir) of EPEC O127:H6, residues 1-233 (domain or fragment)
chain: MPIGNLGNNVNGNHLIPPAPPLPSQTDGAARGGTGHLISSTGALGSRSLFSPLRNSMADSVDSRDIPGLPTNPSRLAAATSETCLLGGFEVLHDKGPLDILNTQIGPSAFRVEVQADGTHAAIGEKNGLEVSVTLSPQEWSSLQSIDTEGKNRFVFTGGRGGSGHPMVTVASDIAEARTKILAKLDPDNHGGRQPKDVDTRSVGVGSASGIDDGVVSETHTSTTNSSVRSDPK
notes: Translocated intimin receptor Tir, EPEC O127:H6, residues 1-233, from a synthetic E. coli codon-optimised gene of the full-length protein; Trx-His6 tag cleaved in vivo by co-expressed TEV protease; also called Tir's N-terminal tail; source: E. coli BL21 Star (DE3) pLysS, purified (Strep-Tactin XT, Superdex 200); not shown: Trx, N-terminal, cleaved; His6, N-terminal, cleaved; Strep-tag, …
[7]
  stoichiometry N: 2

## B4
[8]
  Kd: 9.25 µM
[9]
  Kd: 6.94 µM
[10]
  Kd: 86.1 µM
[11]
  Kd: 2.66 µM
